Results on one molecule are retold here after PMC4822050.

The series has as its target T1, UHRF1 deltaSRA (human, UniProt Q96T88 1-793, del414-617).
T1 sequence: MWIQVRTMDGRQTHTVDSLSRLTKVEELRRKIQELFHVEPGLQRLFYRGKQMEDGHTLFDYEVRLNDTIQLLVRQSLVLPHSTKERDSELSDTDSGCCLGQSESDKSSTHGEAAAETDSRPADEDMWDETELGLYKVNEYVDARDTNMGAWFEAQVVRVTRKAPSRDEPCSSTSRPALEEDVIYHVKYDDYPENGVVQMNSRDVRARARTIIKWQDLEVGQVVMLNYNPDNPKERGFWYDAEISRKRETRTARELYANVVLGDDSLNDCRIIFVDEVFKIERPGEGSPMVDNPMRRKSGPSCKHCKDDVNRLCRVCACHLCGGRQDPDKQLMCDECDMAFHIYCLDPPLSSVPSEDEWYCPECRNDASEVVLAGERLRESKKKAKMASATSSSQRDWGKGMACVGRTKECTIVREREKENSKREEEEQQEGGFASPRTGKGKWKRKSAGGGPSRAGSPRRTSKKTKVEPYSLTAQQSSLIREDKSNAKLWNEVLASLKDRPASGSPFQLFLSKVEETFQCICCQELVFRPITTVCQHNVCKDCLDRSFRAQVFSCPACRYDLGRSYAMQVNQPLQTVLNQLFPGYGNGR
As to the kind of experiment: FP; not detectable; ITC: 10 mM HEPES pH 8.0, 100 mM NaCl, 18 C; EMSA: 20 mM HEPES pH 7.5, 100 mM NaCl, 8% glycerol, 1 mM DTT, on ice; pull-down: 20 mM HEPES-NaOH pH 8.0, 100 mM NaC.

B1: FAM-12bp-HM-DNA (dsDNA)
DNA 1: CCATGCGCTGAC
DNA 2: GTCAGCGCATGG
modifications: 5-methyl-dC at position 6 of strand 2 (GTCAGXGCATGG)
Consider B1, for which the binding result is listed as “no binding”.
